This data set in a line: soluble fraction after stress (log2 fold change); higher = more stays soluble; pooled small domains, quantitative proteomics. To be noted: stress: 75 degC.
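Note: 20 min heating vs room temperature control held 20 min.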

On to “HMGGGVERLTPRQREVLGYMAEGRSNSWIAGAIGFSEKAVVQHTSKIYDALGLAVDADDHRRVLAVLRYLT”, for which the “soluble fraction (log2)” value was -1.44.

For the sequence “HMGGKWKLRILWHIHHGDTRFSTLKRGIPEISEKILAQQLRELEEHQLIKRRVVTVMPPHVVYEL”, the “soluble fraction (log2)” value was -2.37.

For “HMGGLAEIILNAIEIEGGFLPITDKSAPELIQSRLGMSKKAFKEAVGTLYKNRDIAIEPNGLRKI”, the “soluble fraction (log2)” value is -0.452.

Regarding “HMGGLALAEREVVEWLSQRNLLPSPDVVARAAAHPDGLGWLERSLAVLEGPRLFLGLGDLVPEP”, the “soluble fraction (log2)” value is -0.688.

As to “HMGGLAVQLVHAMTDQIRSGRLKAGDKLPTEAAIMKDFGVSRTVVREAISRLQASGWVDTRHGIGTFVLHQ”, the “soluble fraction (log2)” value is -2.1.

Consider “HMGGLIEPLSARELEVLELMSLGKTNQEIARDLVVASGTIKAHAASIYRKLDAANRTEAVTHARELGIL”, for which the “soluble fraction (log2)” value stood at 0.471.

For the sequence “HMGGPEVLELEDVKVGSPGPDEIKVTNHAIGLNYIDTYHRSGLYPLKLPSGIGLEAAGKVEEIGSNV”, the “soluble fraction (log2)” value was 0.00701.

Consider “HMGGQEEALNRLVLRELLGTLEKKERDLIVRRYFYDQTQTKIAEALGISQVQVSRMEKRILKKMREGF”, for which the “soluble fraction (log2)” value was -0.98.

Turning to “HMGGRSARVRRAVLDAVVELLGEGGVRAVTIAEVAKRSGVNASSIYRRWRSIDALILDAAQDL”, the “soluble fraction (log2)” value was -2.51.

As to “HMGGSDIYLGAFNIPQGSVRVTSGGQALTEGKDFTIDYNLGSVKIINQAILNSGIPVSVSYENNAG”, the “soluble fraction (log2)” value is 0.0185.

For “HMGGSLADAKRFLADLLADGPVPAKGVRADADGAGHTWPTIRRAQKALGIEATKTGMKGGWVWALPR”, the “soluble fraction (log2)” value is -0.165.

With “HMGGSVYTVQKGDTLWSIAKEQLGSPLRYAEIYDLNKDVIEEAARGRGKKDSSNGHWLVVGTSLQIPEAT”, the “soluble fraction (log2)” value amounted to 0.184.

Take “HMGGTAGKINAIGVNFRTGPSTSYTSLGLLGKDTAVTVIGTSGKWYKVTIVSTGKTGYVYATYVNLTP”: the “soluble fraction (log2)” value is -2.25.

In the case of “HMGGVIEDDRGQWAHPGEVTKINSNNITMKGVDFPVLGISDTGDKKMMQPGKDYKFDGNSVTEYPMA”, the “soluble fraction (log2)” value is -0.24.

As for “HMGGWEEGVYVVREGDTLSDIVHDAVKGTEIHPDFILNAIVRVNPSAFVRGNPSWMLAGKKIK”, the “soluble fraction (log2)” value was -0.0613.

“HMGGYVTGTIDLTKFGYAFVITEESEDDVFVAARNLNTALHGDQVKVLLYARHKGKRPEGEVVEIISRSRA”: the “soluble fraction (log2)” value was -2.35.

Regarding “HMGHEEPITFDRLPQAAQTFLKTHFDTLTVAYIVADRKFMGVEYEVKYTDRTEVDFRSDGQWESV”, the “soluble fraction (log2)” value was 0.085.

Take “HMGHKTLTVELQEKIENLPQTLDKYNLTLGNNKMSVDYTYSVKEKQTGITNLLQDLKEHKFDIVYLVGQDN”: the “soluble fraction (log2)” value was 0.343.

On to “HMGHLSNENAGRLLDRVLNDKIHAIMLGHLSKENNMPELAHEAVRMEITMGESRYKADDFPIYVA”, for which the “soluble fraction (log2)” value was -0.0465.

In the case of “HMGHTKLVVDIVEELKLEQGALLPILHAIQDELGYVPTKSVPFIADSLNLSRAEVHGVISFYHYFR”, the “soluble fraction (log2)” value stood at 0.153.

In the case of “HMGIAWGMLREQVAASDVSYRSEVLDILDRTPVWIYDAEGKIVDGRKKRLMDLQGGEPYRHMLEHFFPDLR”, the “soluble fraction (log2)” value was -2.43.

On to “HMGIDAIDNFVSKIIMKIEGLGESEVPTSTIGKFIMEGLQYLDTVAYVRYASVYKNFKEAKDFEQFVGSL”, for which the “soluble fraction (log2)” value is -0.0349.

Turning to “HMGIDRPLFTLAQFARQIGEQVKISLSLPQDGRRRLQGKVLSVGESGIVLDVDGREFTVAIGNVDKARL”, the “soluble fraction (log2)” value is -1.83.

Take “HMGIDSSVYVEARYELGHLYLKQKKYAAAYASFKEILDMYASTTPGVLPGAYNKLAEIGMKRIPKNKL”: the “soluble fraction (log2)” value is -2.66.

For the sequence “HMGIIQAQIPGLVSRLFVKKGDKVAVNQRLFILEAMKMENEIDSPIQGMVEKIHITTGSKVEKGDLIMEIV”, the “soluble fraction (log2)” value is -2.9.

For “HMGIIYGKNPVLEAISSGTTINKIYAQTSNKEIDSVIKEALKRKIIVVNTDKQKLDKMIDGKNSQGIIASI”, the “soluble fraction (log2)” value is 0.025.

Take “HMGIKAADIVTNDIQFNTQAQFDKYKDLYPTLGWGNYDPNKTYTMQGFKNKLKPNELFTGTPNLKIEDT”: the “soluble fraction (log2)” value is 0.486.

Take “HMGIKDRIVYIMEKEKLSIPLFAKKIGIGPSTLLHIIRGKNAPSLQVVQAIHKAYPDIDLNWLI”: the “soluble fraction (log2)” value was -1.66.

Regarding “HMGIKSSASLQEAAEKAQSAYYDIEHSGVATAVDIQRAWVAMVAAQIDAGEKLDSGTITLYERLKTST”, the “soluble fraction (log2)” value amounted to 0.0117.

For “HMGIMNFDTWLKSLPGTPTPTIAAKKSGLAAPTLLRHVERGYSTADNVIAIAKAYGVSPIDALVDNGML”, the “soluble fraction (log2)” value is -0.956.

In the case of “HMGIMSEITHRVLRLLGLLESRSTWTGSDLAERLGVTQRTIRRDVIRLRELGYQVDSVQGLDGGYRMS”, the “soluble fraction (log2)” value was -2.65.

Consider “HMGIPVSIGQLDFNQARGNLALQVRASDFAALEQLRQRLGQTGESVQLGSASRDGDAVSARVVIGGQ”, for which the “soluble fraction (log2)” value worked out at 0.0963.

In the case of “HMGIQQNHMTLHARSVASSANVPAEHFDTLVEKLIESGDIKVWKAREILMNLSRQHEEILDES”, the “soluble fraction (log2)” value was -0.789.

Turning to “HMGISGSDLEKMIRNILVNNTDVVETIKSGQDKKGKKQKFLQGLIMKEARGQTDPREAASLLAKLLE”, the “soluble fraction (log2)” value was -0.108.

As to “HMGITMFGQNLKKLRTSKNLSQSKLSKILGISSSTIGMYEQGRRFPDQTILTKIADFFDVSTDYLLGR”, the “soluble fraction (log2)” value was -0.819.

For “HMGIVAQLPTIRVNGKTLYYYDAQSGDNIYSIAEKLGVTVEDIRANNPGVADGVKPRMRLFFPTSLAK”, the “soluble fraction (log2)” value is -0.377.

As for “HMGIVYGVIKENWDQDHPGMVKVEILQGESGKNVSDWIPVMSPYAGKEFGAYALPEIGTQAVVAFE”, the “soluble fraction (log2)” value stood at 0.24.

Take “HMGIYDQAAAAYIEFVESKNRAPKWNELIDALYKENGKDWIDRSTLHGLLRRKEFQELLAQKRKEHLV”: the “soluble fraction (log2)” value is -0.76.

Consider “HMGIYFIIAAKNQENNIEEFIRTTLFRIVYGKEESINNITLVDLKSKDNTKNIMEEIARENENVKV”, for which the “soluble fraction (log2)” value is -0.641.

Turning to “HMGKAPREVQVGELLRVPALNAEGEVLRRDGESVELSIQGKKLRLPLAQLEAFSPRRFARRGEGKVRGRIE”, the “soluble fraction (log2)” value was 0.591.

Regarding “HMGKDLLGYEVFAESGDLVGILKDVMWLPHSDVYVITKGGKEFLIPVIPEVVKGINHEQGVIVISPMEGLL”, the “soluble fraction (log2)” value is -0.234.

As to “HMGKDTLKLKKNAIPYDENGKKLTNLGYSYIKKTTVLNYYGTKIINGSTYYFLGDGVYIKAANVGTTSH”, the “soluble fraction (log2)” value was -2.56.

For “HMGKEYERALQQVTKSEIDSDEKLQQQMDALVNSPRISDKEDAWALLLVKKLRNEGVEWDELPDVLSERVQ”, the “soluble fraction (log2)” value was determined as 0.159.

Take “HMGKGGVAYLLESEFGIELPKDMQREFGPIANDIVDSLGREVSGAELKSMFWKEYIERETPFLLLLVTGQL”: the “soluble fraction (log2)” value came out at 0.404.

For “HMGKIFSELTPREIEVVRLIADGLSNQQIAEELFLSNGTVRNHISTILEKTGLEHRTQIAVMWLR”, the “soluble fraction (log2)” value was -0.139.

As for “HMGKKIVERRNTILNMVNKYGTLDFPQLRDAFPDVSDVTLRKDLQYLDSTKQAIRTHGGIKSI”, the “soluble fraction (log2)” value is -0.0604.

For the sequence “HMGKLQFREKLNGILELGKEKHRVLTMEDVEKYFEEDALSEEQMELVYDYLLSQKIAVTGYVKK”, the “soluble fraction (log2)” value was -0.509.

For the sequence “HMGKPPNNRIHRAKRDYALNLVKEHYPDFGPTLAAEKLAEHHGFTVSRETLRKWMIEDGIWLSRKQRR”, the “soluble fraction (log2)” value is -0.475.

Turning to “HMGKQIKEIVEEYYDSTSKNSPVGGSWKTSLDGVDLTSPNITIWTRTKIKYVDGSESIVTPQSL”, the “soluble fraction (log2)” value was -0.105.

“HMGKRPTIQMVAEMAGVSRGTVDRVLNGRSYVSAQVRQRVLAALQETGYISSREHHQQALQS”: the “soluble fraction (log2)” value was -0.691.

On to “HMGKRRGLKVAEEVFADRGYNPDGTLVNRSLPGAFVKDPDEAIARVIKMVKTKKVTAVNGEEIDIAADSI”, for which the “soluble fraction (log2)” value is -0.0957.

Regarding “HMGKSDEIFIQKSALYEELGQPDRALEMIYSALKSDSLNIDVLHRLVTLLINQNKNEDAILYNQKIID”, the “soluble fraction (log2)” value is -0.203.

Turning to “HMGKTEETLQMEKLVEALRRSGRMKYEDAYRIVYAAFPDAKDFEGMLSGAIRAGFIELQMGNDGAFLRAL”, the “soluble fraction (log2)” value was -0.859.

Turning to “HMGKVNGFEITVIEGKNVVGSITPRQAIAKNSDGVIQLRGEQSFSATDQVLINELAFYIKSNNLKA”, the “soluble fraction (log2)” value is -1.31.

With “HMGLAALLQSGPVAGTVLSHQPGGKVVIAFQGQAYPLNLKGRTLQPGQSVLARMAGEQISLEVI”, the “soluble fraction (log2)” value was -1.14.

For the sequence “HMGLDERNLKLFAASLLEQAGKKITESTMTYLLDKTGSDMENIQNEVEKIIGYTMNHTVVTTEDIDAV”, the “soluble fraction (log2)” value is 0.0873.

As for “HMGLDPVFKKWVDDNPWYTENRVLRALTHDYAEELKQTNPQLVGVEFLDQVKKRVQADHPEFFQ”, the “soluble fraction (log2)” value was found to be 0.0133.

On to “HMGLGDLEVVDSIGKIRRDGQQMILAFGRHKGRDVQEVYNEDPRYINWLLSPKGIEDENGRGKVRDYLGIN”, for which the “soluble fraction (log2)” value was found to be 0.0837.

Turning to “HMGLKQADFEELASRIFTVLEEKSMTPAEIVRKLNLEPDRISIVIQYLLDEGKLNIKDGFINNSA”, the “soluble fraction (log2)” value was -0.29.

As for “HMGLLGIYPNPVEGGSVRLLSDADLFGSRFELYDQSGKLVLNGFVTEGNFVSVKGISSGLYISVSYT”, the “soluble fraction (log2)” value worked out at 0.245.

Take “HMGLLGTDISAETMIGYFKKIDLGFDEETQEVIVPSWRQDLLRDADIAEEVARFYGYDNIPTTLPSGEST”: the “soluble fraction (log2)” value was found to be 0.0485.

As to “HMGLNLIGLKRSGFAPEEVKAMTRAYMYIFKSAEGNFESRLAKAHEKYKDDALIMEMVEFIDDALKG”, the “soluble fraction (log2)” value is -1.09.

Regarding “HMGLQEADKQDRIARMKELISFLNEAAKAYYQEGREIVSNLEYDKAYDALLSLEKESGVVLSGSPSQNVG”, the “soluble fraction (log2)” value amounted to 0.321.

“HMGLRERLLNYIAYKGIDKATLERKSGLSNDAVNKMGDNTRVSTLDKISNAFPDINIAWLKTGVGEMILG”: the “soluble fraction (log2)” value is -0.306.

Take “HMGLSAALKARLREVINEMAKSGAQPKLREWALAEGIGNFAKPETPEAAEAVIAKAQELLAEA”: the “soluble fraction (log2)” value amounted to 0.543.

For the sequence “HMGLSASVIQMFADLGYTSEGRSTKEMITDYQIDHSIIKNSTEDGAGTYGPRTKASLSTVHAQYI”, the “soluble fraction (log2)” value was -0.0653.

Regarding “HMGLSENALAMLKQQETVLIRLIDGRGNQGALASINLIVSRILNLDIVDRTPEDLLRVIASEGEQND”, the “soluble fraction (log2)” value was -3.81.

“HMGMIRFSKEEQMLMMLYSPGSRLGLIAELESMKLQLNSRERKLRNLAESVLKKLEQITDEEFMQFDF”: the “soluble fraction (log2)” value is -2.19.

Turning to “HMGMNSGQADFRGISLALSVDAEAEAQRLFTALADGGQVQMPLSKTFFSPAFGMVADRFGVGWMVVTN”, the “soluble fraction (log2)” value worked out at 0.238.

In the case of “HMGMSENIDKVAGGIPYKVEGNKAIINEPLDDATKERLMGKAKEHGYHAAPNQAGGITITLK”, the “soluble fraction (log2)” value was -0.0517.

The values are drawn from the domain aggregation screens of Martell et al. (2025).
